From publication PMC9424912

Biological target: soluble CD8αα (human)
Test: SPR

Kd | Substance
228 µM | HLA-A*02:01-NLV monomer (WT) (from UniProt P61769 21-119) (peptide-MHC)
177 µM | soluble MR1-β2m-Ac-6-FP monomer (WT) (from UniProt Q95460 23-292; P61769 21-119) (complex)
